Values of other authors in patent US7186797B2, “Polypeptide conjugates with extended circulating half-lives” (Epix Pharmaceuticals, Inc., priority 2001, dated 2007).

B1: interferon γ: commercially important polypeptide-based drug currently in use (protein, UniProt P01579 24-161, looked up)
Interferon gamma: QDPYVKEAENLKKYFNAGHSDVADNGTLFLGILKNWKEESDRKIMQSQIVSFYFKLFKNFKDDQSIQKSVETIKEDMNVKFFNSNKKKRDDFEKLTNYSVTDLNVQRKAIHELIQVMAELSPAAKTGKRKRSQMLFRG
B2: granulocyte colony stimulating factor: commercially important polypeptide-based drug currently in use (protein, UniProt P09919 31-207, looked up)
Granulocyte …: TPLGPASSLPQSFLLKCLEQVRKIQGDGAALQEKLVSECATYKLCHPEELVLLGHSLGIPWAPLSSCPSQALQLAGCLSQLHSGLFLYQGLLQALEGISPELGPTLDTLQLDVADFATTIWQQMEELGMAPALQPTQGAMPAFASAFQRRAGGVLVASHLQSFLEVSYRVLRHLAQP

Conditions: unconjugated polypeptide drug, background statement
For “tissue plasminogen activator: commercially important polypeptide-based drug currently in use”, the t1/2 is given as 55 min. For “Erythropoietin: commercially important polypeptide-based drug currently in use”, the t1/2 is listed as 180 min. In the case of “granulocyte macrophage colony stimulating factor: commercially important polypeptide-based drug currently in use”, the t1/2 is given as 120 min. For urokinase, the t1/2 is listed as 50 min. For relaxin, the t1/2 is given as 30 min. For streptokinase, the t1/2 is given as 80 min. In the case of tumor necrosis factor, the t1/2 is given as 18 min. For “human growth hormone: commercially important polypeptide-based drug currently in use”, the t1/2 is given as 30 min. For B1, the t1/2 is listed as 30 min. In the case of B2, the t1/2 is given as 120 min.
